Patent US11739318B1, “Modified biosensors and biocatalysts and methods of use” (priority 2017, dated 2023)
Residue numbers refer to the chain shown, from its start. Names and notes keep the numbering of the source.

What was measured:
[1] = tested on: ccMA; assay: Intracellular ccMA sensing with CatM sensor in strain CJ184, flow cytometry; format: cell-based, P. putida
Text: FIG. 14A represents the Acinetobacter baylyi CatM promoter region used for selection of ccMA sensing in P. putida KT2440. The regions that were partially diversified or completely randomized are marked ‘red’ and the mutations pursued are labeled. For example −10 and −35 sites were partially randomized for saturation, the ribosome binding site (RBS) was made compatible to the consensus sequence AAGGAG followed by eight bases to the start codon “ATG” of the reporter. Overall the library diversity was expected to be well above 60,000. Using a method similar to what has been described in Example 1-3, catM gene, diversified regulatory region, and sfgfp were inserted into the pBTL2 backbone. The completed circular plasmids, carrying Kanamycin resistance marker, were then transformed into electrocompetent cells of P. putida strain CJ184. The transformation gave well above 60,000 colonies to cover the library adequately. […] Post 16 h of growth at 30° C., the samples were analyzed on a flow cytometer (BD FACSAria III). […] Post third round of sorted population, a fraction was plated on LB agar+Kan50 plates and a few colonies evaluated for PCA, Benzoate and Catechol response, considering CJ184 strain is capable of converting them all to final product ccMA. […]

[2] = individual mutations, hydrolysis of OPs; cited from earlier work
[3] = PON1 expression and solubility from fluorescence of the cell lysate; set-up: species or system E. coli; settings: based on the fluorescence of the cell lysate
Description: The clones were further confirmed for improved activity by using clear cell lysates that were normalized for sfGFP fluorescence (the enzyme variants expressed as sfGFP-PON1 fusion by inducing the same clones with 200 μM pNP) and assayed for activity at different concentrations of PXN. […] The most notable aspect of comparison between the in vivo activity measurements (FIG. 17D) and the in vitro measurements (FIG. 17E) is the relative ranking of the different PON1 variants. While Lib1-C3.3 did show highest Vmax in both formats of experiment, the Lib2-D12 was the lowest in both cases. […] The solubility of other PON1 variants ranged between these two extreme values.

[4] = Paraoxonase activity of purified PON1 variants (pNP absorbance 410 nm); format: biochemical; settings: 400 μM PXN
Description: (§1) FIGS. 17A-17G show evolution of PON1. […] Residue positions varied in library construction are indicated. […] The circled region is magnified (inset) for easy visualization of the bright colony. […] The contrast ratio is defined as total fluorescence of the cells in the presence of PXN over the background fluorescence of the cells in the absence of PXN. […] The product, pNP, is measured by absorbance (410 nm). Error bars are standard deviation from two independent assays with different fractions from size exclusion chromatography. […] Error bars are the standard deviation of two independent assays using elution fractions from first half and second half of the chromatogram peak from size exclusion chromatography.
Finally, the gene for top PON1 variant Lib1-C3.3 (H115W, L69V, K70Q, Y71L, G73A) and the scaffold (H115W) were transferred to a pRSF-1b vector (Novagen) and expressed as a C-terminal 6×His-tagged protein. Post two-step purification using affinity column and a size exclusion chromatography, pure fractions were combined and tested for activity at varying concentrations of PXN. […]

[5] = tested on: pNP sensor; assay: Raw whole cell fluorescence with pNP sensor and sfGFP-PON1 under positive feedback regulation, flow cytometer; format: cell-based, E. coli; settings: mean of duplicate cultures ± SD
Text: FIGS. 16A-16D show ‘Catalyze’ and ‘sense’ system for hydrolysis reactions. […] UI: background fluorescence from cells without any pNP source to induce the TF; […]; pNP: TF induced by exogenously supplied pNP as a control/reference. […] Relative activity levels are distinguishable by eye.
The technique described here (referred to in this example as “smart microbial cells” or SMC; e.g., FIGS. 1A and 1B) allows for catalysis and sensing in the same microbial cell. For a practical library application, we simplified and improved the signal to noise ratio of the biosensor. This was achieved by gene fusing the PON1 to the GFP so that the TF is also regulating the catalytic enzyme expression as well (scheme shown in FIG. 1B). This fusion is expected to have three distinct effects. First, it provides positive feedback, such that more the activity, the more PON1 is expressed, and in turn further ‘feeds’ the activity. […] Second, feedback will amplify the already present correlation between activity and GFP expression. Third, for suitably chosen GFP, the fluorescence signal conveniently reports the amount of fused PON1 present, allowing normalization for specific activity.
. Based on the catalytic efficiency and the cytoplasmic concentration of the hydrolase, PXN hydrolysis results in a correlated pNP production inside the microbial cell that ultimately determines activation of the pNP sensor and accumulation of sfGFP in the cells. […] When pNP was used as an inducer, such that the expression of sfGFP-PON1 expression is independent of the catalytic efficiency of PON1, modest differences in cell fluorescence were still captured across the PON1 variants indicating V346A mutation could be detrimental to PON1 expression and stability (FIG. 16C, Table 6).

[6] = tested on: PXN; assay: Whole cell catalysis and sensing of PON1 clones at varying PXN (contrast ratio); format: cell-based, E. coli; settings: scaffold PON1-H115W
Description: as §1
In order to efficiently screen the library, the biosensor/biocatalyst plasmid consisting of variants of PON1 was directly transferred to high transformation efficiency DH5α cells. […] The colony picking can further be made more stringent by using lower PXN (for example 100 μM) in the growth media and colonies selected based on the fluorescence intensity under an illuminator.
The clones were further confirmed for improved activity by using clear cell lysates that were normalized for sfGFP fluorescence (the enzyme variants expressed as sfGFP-PON1 fusion by inducing the same clones with 200 μM pNP) and assayed for activity at different concentrations of PXN. […]

B1: CatM_C2.9: CatM variant V97I, G127A, T128A, L147V with weaker ccMA sensitivity, SEQ ID NO: 25 (protein)
chain: MELRHLRYFVTVVEEQSISKAAEKLCIAQPPLSRQIQKLEEELGIQLFERGFRPAKVTEAGMFFYQHAVQILTHTAQASSMAKRIATVSQTLRIGYISSLLYGLLPEIIYLFRQQNPEIHIELIECAAKDQINALKQGKIDLGFGRVKITDPAIRRIVLHKEQLKLAIHKHHHLNQFAATGVHLSQIIDEPMLLYPVSQKPNFATFIQSLFTELGLVPSKLTEIREIQLALGLVAAGEGVCIVPASAMDIGVKNLLYIPILDDDAYSPISLAVRNMDHSNYIPKILACVQEVFATHHIRPLIE
modifications: CatM_C2.9
[1]; CJ184
  ccMA titer for dose-response (low sensitivity): > 10 mM

B2: CatM_A9: CatM regulated promoter variant for reduced signal output, SEQ ID NO: 23 (nucleic acid)
DNA: TTATACGCCCTAATTGGTTTTATATACCTTTTTAGTATGCAAAAATACCAAATTGGTGTGGATTTTTATTATTACATTAATTTACAGTATGTAAATAGTATTTATTGAAAAGAAGATGGACCG
modifications: listed as DNA, chemistry not fully specified
[1]; compared with CatM_C2
  fluorescence and dose-response: weaker fluorescence but very similar dose-response as the CatM_C2

B3: L69V: PON1 individual point mutation L69V from the literature (protein, UniProt P27169 2-355, looked up, variant L69V)
Serum …: AKLIALTLLGMGLALFRNHQSSYQTRLNALREVQPVELPNCNLVKGIETGSEDLEILPNGLAFISSGVKYPGIKSFNPNSPGKILLMDLNEEDPTVLELGITGSKFDVSSFNPHGISTFTDEDNAMYLLVVNHPDAKSTVELFKFQEEEKSLLHLKTIRHKLLPNLNDIVAVGPEHFYGTNDHYFLDPYLQSWEMYLGLAWSYVVYYSPSEVRVVAEGFDFANGINISPDGKYVYIAELLAHKIHVYEKHANWTLTPLKSLDFNTLVDNISVDPETGDLWVGCHPNGMKIFFYDSENPPASEVLRIQNILTEEPKVTQVYAENGTVLQGSTVASVYKGKLLIGTVFHKALYCEL
[2]
  higher catalytic efficiency over the wild-type: four- to sixteen and four

B4: Lib1-C3.3: top PON1 variant (H115W, L69V, K70Q, Y71L, G73A) (protein, UniProt P27169 2-355, looked up, variant H115W L69V K70Q Y71L G73A)
Serum …: B3 Serum … with K69Q, Y70L, G72A, H114W
[3]
  protein yield compared to the scaffold: 95%
[4]
  turnover number higher than the starting sequence: approximately thirty
[4]; at ten-fold lower protein concentration
  linear rate exceeding that of PON1-H115W: three

B5: V346A: published PON1 variant with mutation V346A (protein, UniProt P27169 2-355, looked up, variant V346A)
Serum …: B3 Serum … with V68L, V345A
[5]; exogenous paraoxon 1.6 mM
  Raw whole cell fluorescence intensity, PXN (1.6 mM): 895 ± 39
[5]; induced with exogenous pNP 200 μM
  Raw whole cell fluorescence intensity, pNP (200 μM): 6263 ± 57
[5]; uninduced, no pNP source
  Raw whole cell fluorescence intensity, UI: 174 ± 29
[2]
  higher catalytic efficiency over the wild-type: four- to sixteen

B6: Lib2-D12: PON1 clone from Lib2, H115W scaffold with F222I, F292I (protein, UniProt P27169 2-355, looked up, variant H115W F222I F292I)
Serum …: B3 Serum … with V68L, H114W, F221I, F291I
[6]
  contrast ratio higher than the scaffold: 2 fold
[3]
  protein yield compared to the scaffold: 50%
